The source of these data is publication PMC6609335.

For assay [1], the target named is Andes virus (ANDV) envelope glycoprotein Gc, wild type (Andes virus) (UniProt Q9E006). The assay can be described thus: native gel or EMSA. On the technique in general: In EMSA bound probe runs differently from free probe, usually more slowly.
For assay [2] the target is unchanged. The assay can be described thus: sucrose gradient sedimentation.

On to “Andes virus (ANDV) envelope glycoprotein Gc, wild type (from UniProt Q9E006) (natural protein)”, for which the stoichiometry N in assay [1] and in assay [2] was 3 in each case.

Usually stoichiometry N stands for the number of molecules, sites or subunits per partner or assembly.
